Values of other authors as cited in publication PMC9837045.
Several values for one entry are separate records, joined by “and”; a condition that tells them apart may be missing. Equal values may be shown once. Read-outs that look alike come from different tables or passages of the source.

Key:
BMP9 (Homo sapiens) [1] = biological target: BMP9 (Homo sapiens) (UniProt Q9UK05); experiment: SPR
Activin A (Homo sapiens) = Activin A (Homo sapiens) (UniProt P08476); experiment: SPR
BMP9 (Homo sapiens) [2] = biological target: BMP9 (Homo sapiens) (UniProt Q9UK05)
BMP9 (Homo sapiens) [3] = biological target: BMP9 (Homo sapiens) (UniProt Q9UK05); remark: listed apart in the source
BMP9 (Homo sapiens) [4] = biological target: BMP9 (Homo sapiens) (UniProt Q9UK05); remark: listed apart in the source

UniProt P08476, sequence (P08476 311-426): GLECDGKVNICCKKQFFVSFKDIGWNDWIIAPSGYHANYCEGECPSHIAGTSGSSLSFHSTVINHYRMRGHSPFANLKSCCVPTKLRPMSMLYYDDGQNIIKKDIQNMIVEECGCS
UniProt Q9UK05, sequence (Q9UK05 320-429): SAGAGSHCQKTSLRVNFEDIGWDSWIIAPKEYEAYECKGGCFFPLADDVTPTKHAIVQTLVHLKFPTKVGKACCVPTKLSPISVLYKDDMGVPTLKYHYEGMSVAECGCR

Substance | Kd (Activin A (Homo sapiens)) [pM] | also measured
BMPR2-Fc ECD (from UniProt Q13873) | 14000 | 
ACVR2B-Fc (single ECD) ECD (from UniProt Q13705) | 108 | 
(ACVR2B)2-Fc ECD (from UniProt Q13705) | 12.5 | 
ALK1-Fc ECD (from UniProt P37023) |  | Kd (BMP9 (Homo sapiens) [2]): 48.1 pM and 45.5 pM; Kd (BMP9 (Homo sapiens) [1]): 31.3 pM
ACVR2A ECD (from UniProt P27037) | 5700 | 
ALK2-Fc ECD (from UniProt Q04771) |  | Kd (BMP9 (Homo sapiens) [3]): 83000 pM
BMPR2 ECD (from UniProt Q13873) | 59000 | 
ALK1-ECD ECD (from UniProt P37023) |  | Kd (BMP9 (Homo sapiens) [4]): 71.6 pM
ACVR2A-Fc ECD (from UniProt P27037) | 130 | 

Continued, in another order:

Kd (Activin A (Homo sapiens)) [pM] | Substance | also measured
9.2 | ACVR2B-Fc ECD (from UniProt Q13705) | Kd (BMP9 (Homo sapiens) [1]): 33 pM and 116 pM
1100 | ACVR2B ECD (from UniProt Q13705) | 
